Patent publication US20040097713

System: GST-IRS-1 C-terminus fusion protein containing Ser1101
Sequence (chain, as listed by the source): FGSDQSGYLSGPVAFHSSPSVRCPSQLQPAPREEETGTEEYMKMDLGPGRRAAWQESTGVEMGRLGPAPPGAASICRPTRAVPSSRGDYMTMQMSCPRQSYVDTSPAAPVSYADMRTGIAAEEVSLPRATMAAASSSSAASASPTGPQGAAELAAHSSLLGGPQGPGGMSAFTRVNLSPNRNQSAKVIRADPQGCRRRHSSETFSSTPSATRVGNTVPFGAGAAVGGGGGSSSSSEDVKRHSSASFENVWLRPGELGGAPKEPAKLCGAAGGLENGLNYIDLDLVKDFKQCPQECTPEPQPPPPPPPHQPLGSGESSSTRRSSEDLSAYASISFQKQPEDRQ

Row | Substance | in vitro kinase reaction, phosphorylation at Ser1101 by Western blot
1 | protein kinase C theta, active, purified | PKC theta is the only PKC isoform that robustly phosphorylated the GST-IRS-1 fusion protein substrate at Ser1101
2 | Akt kinase, active | The Akt kinase could not effectively phosphorylate IRS-1 at Ser1101, despite the occurrence of this residue within a putative Akt motif
